Laboratory results taken from patent US20200115466A1 (NANOCRUISE PHARMACEUTICAL, published 2020).

B1: humanized 16A antibody hVH2hVL2 (antibody, human IgG1, lambda, V domains shown)
VH: EVQLVESGGGLVQPGGSLRLSCAVSGIDFSRYWMSWVRQAPGKGLEWVGEITPDSNTINYVPSVKGRFTISRDNAKNSLYLQMNSLRAEDTAVYYCASYYEGFAYWGQGTLVTVSS
VL: QAVVTQEPSLTVSPGGTVTLTCGSSTGAVITSNYANWVQQKPGQAPTGLIGRTYNKVPWTPARFSGSLLGDKAALTLSGAQPEDEAEYFCALWYSNHFVFGGGTKLTVLG
notes: CDR-grafted humanized antibody; also called Humanized HC 2 (H2988) with Humanized LC2 (L2988)
B2: humanized 16A antibody hVH4hVL2 (antibody, human IgG1, lambda, V domains shown)
VH: EVQLVESGGGLVQPGGFLRLSCVVSGIDFSRYWMSWVRQAPGKGLEWVGEITPDSNTINYVPSVKGNFGISRDNAKNSLFLQMNSLRAEDTAVYFCASYYEGFAYWGQGTLVTVSS
VL: QAVVTQEPSLTVSPGGTVTLTCGSSTGAVITSNYANWVQQKPGQAPTGLIGRTYNKVPWTPARFSGSLLGDKAALTLSGAQPEDEAEYFCALWYSNHFVFGGGTKLTVLG
notes: CDR-grafted humanized antibody; also called Humanized HC 4 (H2990) with Humanized LC2 (L2988)
B3: humanized 16A antibody hVH1hVL2 (antibody, human IgG1, lambda, V domains shown)
VH: EVQLVESGGGLVQPGGSLRLSCAVSGIDFSRYWMSWVRQAPGKGLEWVAEITPDSNTINYVPSVKGRFTISRDNAKNSLYLQMNSLRAEDTAVYYCASYYEGFAYWGQGTLVTVSS
VL: QAVVTQEPSLTVSPGGTVTLTCGSSTGAVITSNYANWVQQKPGQAPTGLIGRTYNKVPWTPARFSGSLLGDKAALTLSGAQPEDEAEYFCALWYSNHFVFGGGTKLTVLG
notes: CDR-grafted humanized antibody; also called Humanized HC 1 (H2987) with Humanized LC2 (L2988)
B4: humanized 16A antibody hVH3hVL2 (antibody, human IgG1, lambda, V domains shown)
VH: EVKLVESGGGLVQPGGSLRLSCAVSGIDFSRYWMSWVRQAPGKGLEWVGEITPDSNTINYVPSVKGRFTISRDNAKNSLYLQMNSLRAEDTAVYFCASYYEGFAYWGQGTLVTVSS
VL: QAVVTQEPSLTVSPGGTVTLTCGSSTGAVITSNYANWVQQKPGQAPTGLIGRTYNKVPWTPARFSGSLLGDKAALTLSGAQPEDEAEYFCALWYSNHFVFGGGTKLTVLG
notes: CDR-grafted humanized antibody; also called Humanized HC 3 (H2989) with Humanized LC2 (L2988)
B5: humanized 16A antibody hVH5hVL2 (antibody, human IgG1, lambda, V domains shown)
VH: EVQLVESGGGLVQPGGSLRLSCVVSGIDFSRYWMSWVRQAPGKGLEWVGEITPDSNTINYVPSVKGRFGISRDNAKNSLYLQMNSLRAEDTAVYFCASYYEGFAYWGQGTLVTVSS
VL: QAVVTQEPSLTVSPGGTVTLTCGSSTGAVITSNYANWVQQKPGQAPTGLIGRTYNKVPWTPARFSGSLLGDKAALTLSGAQPEDEAEYFCALWYSNHFVFGGGTKLTVLG
notes: CDR-grafted humanized antibody; also called Humanized HC 5 (H2991) with Humanized LC2 (L2988)
B6: mouse-human chimeric antibody 16A (antibody, human IgG1, lambda, V domains shown)
VH: EVKLHQSGGGLVQPGGFLKISCVVSGIDFSRYWMSWVRRAPGKGLEWIGEITPDSNTINYVPSLKDNFGISRDNAKNTLFLQMTKVRSEDTALYFCASYYEGFAYWGQGTLVTVSA
VL: QAVVTQESALTTSPGETVTLTCRSSTGAVITSNYANWVQEKPDHLFTGLIGRTYNRVPGVPARFSGSLIGDKAALTITGAQTEDEAIYFCALWYSNHFVFGGGTKLTVLG
notes: Murine 16A VH and VL joined to human IgG1 constant region and human lambda 2 light chain; also called chimeric 16A; 16A chimeric antibody

Target: T1, MUC1 on the surface of lung cancer cell line H838 (UniProt P15941 24-1255, limits assumed, tumour-type glycosylation (GalNAc epitope RPAPGS(GalNAc)TAPPAHG), as the filing describes the antigen)
T1 construct: whole, on cells; No MUC1-negative control of H838 is reported; also called antigen
Assay: flow cytometry, surface staining of H838 cells, PE anti-human IgG
Procedure: Lung cancer cell line H838 was obtained from the University of Texas M.D. Anderson Cancer Center. Cells were cultured in 10% RPMI 1640 medium. Different concentrations of chimeric antibody or humanized antibodies were used as primary antibody for staining, washed three times with PBS, then incubated with PE-conjugated mouse-anti-human IgG (BioLegend). The stained cells were analyzed by FACS Caliber flow cytometer (BD Biosciences, San Jose, Calif.).

T1 sequence (P15941 24-1255 limits assumed): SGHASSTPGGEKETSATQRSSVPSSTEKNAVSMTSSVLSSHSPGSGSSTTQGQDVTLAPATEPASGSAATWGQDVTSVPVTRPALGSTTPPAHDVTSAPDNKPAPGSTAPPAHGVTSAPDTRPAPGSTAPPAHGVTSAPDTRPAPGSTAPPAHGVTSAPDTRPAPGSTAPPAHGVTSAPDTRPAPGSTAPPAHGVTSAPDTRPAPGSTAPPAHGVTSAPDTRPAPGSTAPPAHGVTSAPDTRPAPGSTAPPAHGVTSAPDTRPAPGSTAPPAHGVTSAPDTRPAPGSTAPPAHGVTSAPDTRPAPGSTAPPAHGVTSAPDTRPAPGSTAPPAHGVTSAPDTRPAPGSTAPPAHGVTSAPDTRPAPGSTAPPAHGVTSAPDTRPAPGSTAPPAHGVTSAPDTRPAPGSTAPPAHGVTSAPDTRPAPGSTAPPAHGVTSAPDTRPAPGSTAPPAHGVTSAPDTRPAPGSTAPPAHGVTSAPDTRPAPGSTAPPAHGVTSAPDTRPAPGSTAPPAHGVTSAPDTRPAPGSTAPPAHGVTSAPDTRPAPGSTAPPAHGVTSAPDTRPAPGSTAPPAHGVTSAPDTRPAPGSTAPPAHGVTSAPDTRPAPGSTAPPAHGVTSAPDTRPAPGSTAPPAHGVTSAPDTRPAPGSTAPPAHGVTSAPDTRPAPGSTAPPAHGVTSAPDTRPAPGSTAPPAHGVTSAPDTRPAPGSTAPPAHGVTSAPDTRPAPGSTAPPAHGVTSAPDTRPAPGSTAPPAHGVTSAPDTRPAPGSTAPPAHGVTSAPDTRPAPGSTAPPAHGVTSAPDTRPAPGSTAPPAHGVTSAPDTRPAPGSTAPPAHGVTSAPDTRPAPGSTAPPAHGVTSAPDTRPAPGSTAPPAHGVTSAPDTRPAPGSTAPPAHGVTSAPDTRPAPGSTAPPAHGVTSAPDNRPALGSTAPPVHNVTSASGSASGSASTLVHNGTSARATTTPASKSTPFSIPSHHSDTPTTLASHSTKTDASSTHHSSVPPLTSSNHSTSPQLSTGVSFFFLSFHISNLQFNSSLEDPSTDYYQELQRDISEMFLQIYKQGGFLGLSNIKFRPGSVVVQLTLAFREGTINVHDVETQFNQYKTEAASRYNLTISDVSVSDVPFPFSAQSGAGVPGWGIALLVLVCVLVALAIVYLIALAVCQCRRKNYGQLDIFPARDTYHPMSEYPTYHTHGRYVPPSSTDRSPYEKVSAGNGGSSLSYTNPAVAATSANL

| Binder | Minimum concentration of binding to lung cancer cell line H838 [µg/mL] |
| --- | --- |
| B1 | 0.025 |
| B2 | 0.05 |
| B3 | 0.025 |
| B4 | 0.025 |
| B5 | 0.025 |
| B6 | 0.0125 |
